Molecular target: prothrombin

B1: oscutarin C (OsPA), Group C prothrombin activator purified from Oxyuranus scutellatus (Coastal Taipan) venom, preparation 17 Apr. 2012 (protein)
chain 1: ANSLYEEFRSGNIERECIEERCSKEEAREVFEDDEKTETFWNVYVDGDQCSSNPCHYRGTCKDGIGSYTCTCLSGYEGKNCERVLYKSCRVDNGNCWHFCKPVQNDIQCSCAEGYLLGEDGHSCVAGGNFSCGRNIKTRNKREASLPDFVQSQNAILLKKSDNPSPDIRIVNGMDCKLGECPWQAVLVDEKEDAFCGGTILSPIYVLTAAHCINQTKMISVVVGEINISRKNPGRLLSVDKIYVHQKFVPPKKGYEFYEKFDLVSYDYDIAILQMKTPIQFSENVVPACLPTADFANQVLMKQDFGIVSGFGRIFEKGPQSKTLKVLKVPYVDRHTCMLSSESPITPTMFCAGYDTLPRDACQGDSGGPHITAYRDTHFITGIVSWGEGCAQTGKYGVYTKVSKFILWIKRIMRQKLPSTESSTGRL
chain 2: AQLREYRLAAQLEDWDYNPQPEELSRLSESDLTFKKIVYREYELDFKQEKPRDELSGLLGPTLRGEVGDSLIIYFKNFATQPVSIHPQSAVYNKWSEGSSYSDGTSDVERLDDAVPPGQSFKYVWNITAEIGPKKADPPCLTYAYYSHVNMVRDFNSGLIGALLICKEGSLNADGAQKFFNREYVLMFSVFDESKNWYRKPSLQYTINGFANGTLPDVQACAYDHISWHLIGMSSSPEIFSVHFNGQTLEQNHYKVSTINLVGGASVTANMSVSRTGKWLISSLVAKHLQAGMYGYLNIKDCGNPDTLTRKLSFRERRRIMKWEYFIAAEEITWDYAPEIPSSVDRRYKAQYLDNFSNFIGKKYKKAVFRQYEDSNFTKPTYAIWPKERGILGPVIKAKVRDTVTIVFKNLASRPYSIYVHGVSVSKDAEGAVYPSDPKENITHGKAVEPGQVYTYKWTVLDTDEPTVKDSECITKLYHSAVDMTRDIASGLIGPPLVCKRKALSIRGVQNKADVEQHAVFAVFDENKSWYLEDNIKKYCSNPSSVKKDDPKFYKSNVMYTLNGYASDRTEVWGFHQSEVVEWHLTSVGTVDEIVPVHLSGHTFLSKGKHQDILNLFPMSGESATVTMDNLGTWLLSSWGSCEMSNGMRLRFLDANYDDEDEGNEEEEEDDGDIFADIFNPPEVVIKKEEVPVNFVPDPESDALAKELGLFDDEDNPKQSRSEQTEDDEEQLMIASMLGLRSFKGSVAEEELKHTALALEEDAHASDPRIDSNSAHNSDDIAGRYLRTINRRNKRRYYIAAEEVLWDYSPIGKSQVRSLPAKTTFKKAIFRSYLDDTFQTPSTGGEYEKHLGILGPIIRAEVDDVIEVQFRNLASRPYSLHAHGLLYEKSSEGRSYDDNSPELFKKDDAIMPNGTYTYVWQVPPRSGPTDNTEKCKSWAYYSGVNPEKDIHSGLIGPILICQKGMIDKYNRTIDIREFVLFFMVFDEEKSWYFPKSDKSTCEEKLIGVQSRHTFPAINGIPYQLQGLMMYKDENVHWHLLNMGGPKDVHVVNFHGQTFTEEGREDNQLGVLPLLPGTFASIKMKPSKIGTWLLETEVGENQERGMQALFTVIDKDCKLPMGLASGIIQDSQISASGHVGYWEPKLARLNNTGMFNAWSIIKKEHEHPWIQIDLQRQVVITGIQTQGTVQLLKHSYTVEYFVTYSKDGQNWITFKGRHSKTQMHFEGNSDGTTVKENHIDPPIIARYIRLHPTKFYNTPTFRIELLGCEVEGCSVPLGMESGAIKDSEITASSYKKTWWSSWEPFLARLNLKGRTNAWQPKVNNKDQWLQIDLQHLTKITSIITQGATSMTTSMYVKTFSIHYTDDNSTWKPYLDVRTSMEKVFTGNINSDGHVKHFFNPPILSRFIRIIPKTWNQYIALRIELFGCEVF
  rate of prothrombin activation in the S-2238 two-stage assay (thrombin produced against sampling time): (eg) (9.98e-6 umol/min)
  specific activity of the prothrombin activator (rate of thrombin production against OsPA concentration): (eg) (5.0e-3 units/mg)
